Laboratory results as given in patent US12312417B2, “Binding proteins 1” (Nucleus Therapeutics Pty. Ltd., priority 2017, dated 2025).

Tests used:
DLD1 colon cancer cells = test: Alkaline phosphatase-based survey of nuclear penetration; format: cell-based; settings: cells treated for one hour; right shift of histogram peak
Method: DLD1 colon cancer cells were treated with control media or each of the indicated variants for one hour. Cells were then washed, fixed, blocked with 1% BSA-TBST, and then probed with protein L for one hour. Cells were then washed and incubated with an anti-protein L primary antibody for one hour. After another round of washing cells were incubated with an alkaline phosphatase-conjugated secondary antibody for one hour. Finally, cells were washed and signal was developed by addition of NBT/BCIP. Dark stain indicates location of the variants.
Raw integrated density values reflecting nuclear alkaline phosphatase staining in the DLD1 cells from the experiment in FIG. 3 were obtained by analysis using ImageJ Boxplots of distributions of values are presented for each variant in FIG. 4.
Histogram plots of cell counts versus nuclear staining intensity (represented as reciprocal intensity in arbitrary units) are shown in FIG. 5.

[1] = system: PTEN-deficient U251 human glioma cells; test: Phospho-53BP1 foci accumulation (DNA damage); format: cell-based; settings: for mean number of phospho-53BP1 foci per cell: PTEN-deficient U251
Method: A matched pair of PTEN-proficient and deficient U251 human glioma cells were treated with control media or media containing Variant 10, 11, 13, 15, or 16 for twenty-four hours. Cells were then washed, fixed, blocked, and then probed with an anti-phospho-53BP1 antibody overnight. Cells were then washed and incubated with an AlexaFluor555-conjugated secondary antibody. Finally, cells were washed, counterstained with DAPI, and visualized under a fluorescence microscope. Images were saved and evaluated by CellProfiler to determine mean number of phospho-53BP1 foci per cell.
(§1) A matched pair of BRCA2-proficient and deficient DLD1 colon cancer cells and PTEN-proficient and deficient U251 human glioma cells were treated with control media or media containing 10 μM di-scFv variant 13 (SEQ ID NO: 41), 5 nM olaparib, or combination treatment.

[2] = system: PTEN-deficient U87 human glioma cells; test: Cell viability by Trypan blue exclusion assay; format: cell-based; settings: 7 days after treatment; relative to control treated cells
Method: Cell viability of PTEN-deficient U87 human glioma cells was also assessed following treatment with control media or media containing Variants 10, 13, 15, or 16. Cell viability was determined 7 days after treatment using Trypan blue exclusion assay and by direct visualization of cell morphology by light microscopy.

[3] = system: BRCA2-deficient DLD1 colon cancer cells; test: Cell viability by Trypan blue exclusion assay; format: cell-based; settings: 7 days later
Method: (§2) Next, a matched pair of BRCA2-proficient and deficient DLD1 colon cancer cells was treated with control media or media containing Variants 10, 13, 15, or 16. Cell viability was determined 7 days later by Trypan blue exclusion assay and by direct visualization of cell morphology by light microscopy. […] Representative light microscope images shown the changes in morphology in the BRCA2-deficient cancer cells treated with the variants are shown in FIG. 10, Panel A. Quantitative analysis of the cell survival by Trypan blue exclusion assay is shown in FIG. 10, Panel B.

[4] = system: BRCA2-proficient DLD1 colon cancer cells; test: Cell viability by Trypan blue exclusion assay; format: cell-based; settings: 7 days later
Method: as §2

DLD-1 cells = test: Nuclear penetration by protein L immunostain of fixed cells; format: cell-based
Method: (§3) DLD-1 and MCF-7 cells were treated with control or di-scFv (SEQ ID NO: 41), and nuclear penetration was evaluated by protein L immunostain of fixed cells.

MCF-7 cells = test: as above; format: cell-based
Method: as §3

[5] = system: HDR-proficient DLD1 cells; test: Cell death in HDR-proficient cells, di-scFv with PARP inhibitor; format: cell-based; settings: 5 nM olaparib, 10 μM di-scFv, or both
Method: Homology-directed repair (HDR) deficient BRCA2-DLD1 cells and PTEN-U251 cells were treated with control, 5 nM olaparib, 10 μM di-scFv, or 10 μM di-scFv+5 nM olaparib. Surviving fraction was determined by colony formation assay.
It was then determined whether the combination of di-scFv and olaparib is simply universally cytotoxic, regardless of DNA repair status. To evaluate this possibility, HDR-proficient DLD1 cells were treated with the above regimen to confirm selectivity of combination therapy to HDR-deficient malignant cells.

[6] = system: Primary human glioblastoma (GBM) cancer cells; test: Live cells by trypan blue staining in primary GBM explants; format: cell-based; settings: seven patient explants; percentage of live cells by trypan blue
Method: Primary human glioblastoma (GBM) cancer cells extracted from primary human GBM tumours from patients were treated with control or di-scFv (SEQ ID NO: 41), and percentage of live cells was evaluated by trypan blue staining.

[7] = system: human GBM cancer stem cells (CSCs) grown as tumour spheres; test: GBM tumour sphere penetration and sphere volume; format: cell-based
Method: GBM cancer stem cells extracted from primary human GBM tumours from patients and grown as spheres were treated with control or di-scFv (SEQ ID NO: 41), and the effect of dose and incubation time on reduction of sphere volume was evaluated by confocal micrographs of DX1-rhodamine cellular penetration into GBM cells. Tumour spheres are recognised as a useful tool for pre-clinical studies as they retain tumour heterogeneity and more closely represent the original patient tumour.

[8] = system: GBM cells extracted from human GBM tumours; test: Orthotopic mouse model of GBM; format: in vivo
Method: An orthotopic mouse model of GBM was generated by intracranial injection of GBM cells extracted from human GBM tumours. Once the tumours developed in the brain, mice were treated by tail vein injection of control or di-scFv variant 13 (SEQ ID NO: 41), and effect of di-scFv on reduction of tumour volume was evaluated by extraction of tumours. […] To confirm this, tumours and normal brain were probed for di-scFv by protein L immunostaining.
Mean survival data reflected these trends (83 days±3.2 days for di-scFv treated mice, 71 days±1.2 days for controls) (FIG. 16E). Statistical analysis indicated a significant difference between the two groups, with P value=0.004.

[9] = system: BRCA2-deficient DLD1 colon cancer cells; test: Phospho-53BP1 foci accumulation; format: cell-based
Method: as §1

B1: Variant 13: cell penetrating anti-DNA humanized di-scFv, SEQ ID NO: 41 (protein)
scFv: DIQMTQSPSSLSASLGDRATITCRASKTVSTSSYSYMHWYQQKPGQPPKLLIKYASYLESGVPSRFSGSGSGTDFTLTISSLQPEDAATYYCQHSREFPWTFGGGTKVEIKRADAAPGGGGSGGGGSGGGGSEVQLVESGGGLVQPGGSLRLSCAASGFTFSNYGMHWVRQAPGKGLEWVSYISSGSSTIYYADSVKGRFTISRDNAKNSLYLQMNSLRAEDTAVYYCARRGLLLDYWGQGTTVTVSSASTKGPSVFPLAPLESSGSDIQMTQSPSSLSASLGDRATITCRASKTVSTSSYSYMHWYQQKPGQPPKLLIKYASYLESGVPSRFSGSGSGTDFTLTISSLQPEDAATYYCQHSREFPWTFGGGTKVEIKRADAAPGGGGSGGGGSGGGGSEVQLVESGGGLVQPGGSLRLSCAASGFTFSNYGMHWVRQAPGKGLEWVSYISSGSSTIYYADSVKGRFTISRDNAKNSLYLQMNSLRAEDTAVYYCARRGLLLDYWGQGTTVTVSS
modifications: Variant 13
nuclear penetration relative to the yeast prototype (histogram of cell counts versus nuclear staining intensity) (DLD1 colon cancer cells): notable right shift and narrowing of distributions | percentage of P53BP1-positive cells ([1]; HDR-deficient U251, 24 hour): increased | mean number of phospho-53BP1 foci per cell ([1]; 10 μM di-scFv, 5 nM olaparib): increased the number of phospho-53BP1 foci | mean number of phospho-53BP1 foci per cell ([1]; twenty-four hours, vs control media): increased the number of foci | cell viability [2]: reductions in cell viability | cell viability / toxicity [3]: killed by the variants | cell viability / toxicity [4]: not toxic | nuclear penetration (DLD-1 cells): successfully penetrated | nuclear penetration (MCF-7 cells): successfully penetrated | cell death [5]: No effect on cell death | glioblastoma tumour explants showing significant cancer cell death [6]: Five of the seven | cellular penetration in GBM spheres ([7]; confocal micrographs, DX1-rhodamine): demonstrated cellular penetration in GBM spheres | sphere volume ([7]; effect of dose and incubation time): reduced sphere volume in dose-dependent and time-dependant manner | median survival ([8]; group of 7 mice): 87 days | median survival longer than controls ([8]; group of 7 mice, controls median 72 days): more than 20% | crossing of the blood brain barrier ([8]; mouse, in vivo): successfully crossed the blood brain barrier | di-scFv in GBM tumour cells by protein L immunostaining ([8]; mouse, in vivo): detected in the nuclei of GBM tumour cells | di-scFv in adjacent normal brain cells by protein L immunostaining ([8]; mouse, in vivo): not evident | toxicity or weight loss ([8]; survival study mice): No toxicity or weight loss | TUNEL staining (incidence of apoptosis in tumours) ([8]; tail vein injection): increased incidence of apoptosis | glioblastoma tumour size smaller than in control mice ([8]; tail vein injection, brain sections): more than 40% | mean number of phospho-53BP1 foci per cell ([9]; BRCA2-deficient DLD1, 10 μM di-scFv, 5 nM olaparib): increased the number of phospho-53BP1 foci | percentage of P53BP1-positive cells ([9]; HDR-deficient DLD1, 24 hour): increased
